Test results as given in paper PMC9482650, “Quantitative fragmentomics allow affinity mapping of interactomes” (Nature Communications, 2022).
Numbering of substitutions follows the chain as printed. Blank lines part the entries; values can stand above or below the binder they belong to.

Columns and labels:
Experiment in all cases: holdup assay
Parameters in all cases: key: below the threshold = too weak to quantify, mostly under pKd 3.1 to 4
AHNAK1, Q09666 = biological target: AHNAK1, Q09666
CARD11, Q9BXL7 = biological target: T1, CARD11, Q9BXL7
T1 sequence (Q9BXL7 662-765, limits assumed, looked up): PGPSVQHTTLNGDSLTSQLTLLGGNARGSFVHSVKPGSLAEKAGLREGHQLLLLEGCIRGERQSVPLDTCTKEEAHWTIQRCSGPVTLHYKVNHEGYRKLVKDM

DLG2_3, Q15700 = biological target: DLG2_3, Q15700
DLG3_1, Q92796 = biological target: T2, DLG3_1, Q92796
T2 sequence (Q92796 125-227, limits assumed, looked up): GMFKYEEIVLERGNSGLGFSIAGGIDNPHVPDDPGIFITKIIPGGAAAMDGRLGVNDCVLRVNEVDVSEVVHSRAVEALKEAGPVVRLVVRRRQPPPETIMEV

DLG3_2, Q92796 = biological target: T3, DLG3_2, Q92796
T3 sequence (Q92796 221-321, limits assumed, looked up): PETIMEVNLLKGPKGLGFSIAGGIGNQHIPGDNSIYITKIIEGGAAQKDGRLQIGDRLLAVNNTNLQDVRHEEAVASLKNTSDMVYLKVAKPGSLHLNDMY

FRMPD2_2, Q68DX3 = biological target: FRMPD2_2, Q68DX3
FRMPD4, Q14CM0 = biological target: FRMPD4, Q14CM0
GRID2IP_2, A4D2P6 = biological target: GRID2IP_2, A4D2P6
Inadl_2, Q8NI35 = biological target: Inadl_2, Q8NI35
Inadl_6, Q8NI35 = biological target: Inadl_6, Q8NI35
Inadl_8, Q8NI35 = biological target: Inadl_8, Q8NI35
LIN7A, O14910 = biological target: T4, LIN7A, O14910
T4 sequence (O14910 103-200, limits assumed, looked up): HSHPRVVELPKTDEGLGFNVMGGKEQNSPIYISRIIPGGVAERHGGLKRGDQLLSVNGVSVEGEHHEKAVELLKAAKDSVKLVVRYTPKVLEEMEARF

LIN7C, Q9NUP9 = biological target: T5, LIN7C, Q9NUP9
T5 sequence (Q9NUP9 88-185, limits assumed, looked up): T4 sequence (O14910 103-200, limits assumed, looked up) with D13E, V20I, V40I, E42D, K77Q, D78G, S79K, A96S

LNX1_1, Q8TBB1 = biological target: LNX1_1, Q8TBB1
LRRC7, Q96NW7 = biological target: T6, LRRC7, Q96NW7
T6 sequence (Q96NW7 1440-1537, limits assumed, looked up): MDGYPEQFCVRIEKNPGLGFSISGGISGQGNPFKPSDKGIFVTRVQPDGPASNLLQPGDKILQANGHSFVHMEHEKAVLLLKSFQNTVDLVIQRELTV

MAGI2_3, Q86UL8 = biological target: MAGI2_3, Q86UL8
MAGI2_5, Q86UL8 = biological target: MAGI2_5, Q86UL8
MPDZ_5, O75970 = biological target: T7, MPDZ_5, O75970
T7 sequence (O75970 695-796, limits assumed, looked up): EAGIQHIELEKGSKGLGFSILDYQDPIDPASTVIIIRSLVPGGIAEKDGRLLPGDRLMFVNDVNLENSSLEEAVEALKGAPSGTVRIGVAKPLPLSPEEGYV

NHERF3_1, Q5T2W1 = biological target: T8, NHERF3_1, Q5T2W1
T8 sequence (Q5T2W1 4-100, limits assumed, looked up): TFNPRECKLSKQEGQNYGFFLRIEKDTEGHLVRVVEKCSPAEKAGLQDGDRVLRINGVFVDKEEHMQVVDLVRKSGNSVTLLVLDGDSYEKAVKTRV

NHERF3_3, Q5T2W1 = biological target: T9, NHERF3_3, Q5T2W1
T9 sequence (Q5T2W1 238-333, limits assumed, looked up): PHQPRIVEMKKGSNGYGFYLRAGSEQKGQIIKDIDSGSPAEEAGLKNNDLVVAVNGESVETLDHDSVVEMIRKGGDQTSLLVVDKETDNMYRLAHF

NHERF4_2, Q86UT5 = biological target: NHERF4_2, Q86UT5
PICK1, Q9NRD5 = biological target: PICK1, Q9NRD5
SNTB1, Q13884 = biological target: T10, SNTB1, Q13884
T10 sequence (Q13884 107-205, limits assumed, looked up): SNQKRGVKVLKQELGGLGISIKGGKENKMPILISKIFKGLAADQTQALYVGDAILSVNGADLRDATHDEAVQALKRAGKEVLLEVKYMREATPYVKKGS

TJP1_2, Q07157 = biological target: TJP1_2, Q07157
TJP2_1, Q9UDY2 = biological target: TJP2_1, Q9UDY2
TJP3_3, O95049 = biological target: T11, TJP3_3, O95049
T11 sequence (O95049 375-456, limits assumed, looked up): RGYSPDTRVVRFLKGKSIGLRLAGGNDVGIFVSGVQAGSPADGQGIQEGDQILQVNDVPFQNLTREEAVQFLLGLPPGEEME

[1] = plain residues with an end cap or a label only (N-terminal biotin on a linker: ahx)
[2] = plain residues with an end cap or a label only (N-terminal biotin on a linker: ttds)

Chain of PICK1, Q9NRD5 (Q9NRD5 17-115): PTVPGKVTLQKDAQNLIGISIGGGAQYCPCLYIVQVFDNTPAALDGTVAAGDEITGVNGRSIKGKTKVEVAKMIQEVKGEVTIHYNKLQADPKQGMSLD
Chain of AHNAK1, Q09666 (Q09666 4-100): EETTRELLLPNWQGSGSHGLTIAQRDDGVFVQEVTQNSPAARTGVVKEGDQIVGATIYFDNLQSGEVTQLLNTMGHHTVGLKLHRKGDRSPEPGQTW
Chain of Inadl_2, Q8NI35 (Q8NI35 238-335): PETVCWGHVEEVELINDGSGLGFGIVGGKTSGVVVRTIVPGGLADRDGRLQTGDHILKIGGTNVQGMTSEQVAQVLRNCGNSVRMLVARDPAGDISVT
Chain of TJP2_1, Q9UDY2 (Q9UDY2 24-128): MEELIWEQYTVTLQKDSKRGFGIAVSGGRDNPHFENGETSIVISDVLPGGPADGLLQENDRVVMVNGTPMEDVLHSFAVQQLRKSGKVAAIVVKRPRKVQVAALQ
Chain of GRID2IP_2, A4D2P6 (A4D2P6 272-370): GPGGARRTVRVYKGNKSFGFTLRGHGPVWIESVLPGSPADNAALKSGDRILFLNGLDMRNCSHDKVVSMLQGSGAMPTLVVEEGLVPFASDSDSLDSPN
Chain of MAGI2_5, Q86UL8 (Q86UL8 915-1017): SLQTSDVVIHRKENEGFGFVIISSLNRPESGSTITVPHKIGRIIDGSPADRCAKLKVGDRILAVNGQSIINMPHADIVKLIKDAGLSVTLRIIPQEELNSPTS
Chain of Inadl_8, Q8NI35 (Q8NI35 1425-1530): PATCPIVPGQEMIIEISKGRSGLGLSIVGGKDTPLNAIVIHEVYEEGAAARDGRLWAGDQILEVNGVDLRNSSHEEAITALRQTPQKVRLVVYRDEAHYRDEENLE
Chain of Inadl_6, Q8NI35 (Q8NI35 1058-1167): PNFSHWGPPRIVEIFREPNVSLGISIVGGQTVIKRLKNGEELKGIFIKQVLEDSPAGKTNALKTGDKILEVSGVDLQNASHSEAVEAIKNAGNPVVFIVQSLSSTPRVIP
Chain of FRMPD4, Q14CM0 (Q14CM0 67-160): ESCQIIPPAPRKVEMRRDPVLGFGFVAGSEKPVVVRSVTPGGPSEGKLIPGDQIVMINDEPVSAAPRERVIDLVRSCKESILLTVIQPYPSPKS
Chain of LNX1_1, Q8TBB1 (Q8TBB1 261-371): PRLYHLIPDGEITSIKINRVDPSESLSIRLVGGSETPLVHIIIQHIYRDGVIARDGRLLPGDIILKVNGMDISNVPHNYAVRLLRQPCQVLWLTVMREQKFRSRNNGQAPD
Chain of FRMPD2_2, Q68DX3 (Q68DX3 944-1038): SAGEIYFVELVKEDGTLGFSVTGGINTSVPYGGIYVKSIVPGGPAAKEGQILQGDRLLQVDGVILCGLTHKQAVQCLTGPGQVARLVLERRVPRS
Chain of TJP1_2, Q07157 (Q07157 181-274): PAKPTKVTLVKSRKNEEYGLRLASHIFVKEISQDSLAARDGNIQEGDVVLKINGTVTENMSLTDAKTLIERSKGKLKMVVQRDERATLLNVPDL
Chain of MAGI2_3, Q86UL8 (Q86UL8 600-682): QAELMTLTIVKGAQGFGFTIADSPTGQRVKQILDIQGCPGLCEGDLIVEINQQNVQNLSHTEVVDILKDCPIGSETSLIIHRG
Chain of NHERF4_2, Q86UT5 (Q86UT5 220-308): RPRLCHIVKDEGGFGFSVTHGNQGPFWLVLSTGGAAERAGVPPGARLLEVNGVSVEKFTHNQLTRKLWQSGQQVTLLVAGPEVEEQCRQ

pKd (AHNAK1, Q09666; [1]): below the threshold
pKd (CARD11, Q9BXL7; [1]): below the threshold
pKd (DLG2_3, Q15700; [1]): below the threshold
pKd (DLG3_1, Q92796; [1]): below the threshold
pKd (DLG3_2, Q92796; [1]): below the threshold
pKd (FRMPD2_2, Q68DX3; [1]): below the threshold
pKd (FRMPD4, Q14CM0; [1]): below the threshold
pKd (GRID2IP_2, A4D2P6; [1]): below the threshold
pKd (Inadl_2, Q8NI35; [1]): below the threshold
pKd (Inadl_6, Q8NI35; [1]): below the threshold
pKd (Inadl_8, Q8NI35; [1]): below the threshold
pKd (LIN7A, O14910; [1]): below the threshold
pKd (LIN7C, Q9NUP9; [1]): below the threshold
pKd (LNX1_1, Q8TBB1; [1]): below the threshold
pKd (LRRC7, Q96NW7; [1]): below the threshold
pKd (MAGI2_3, Q86UL8; [1]): below the threshold
pKd (MAGI2_5, Q86UL8; [1]): below the threshold
pKd (MPDZ_5, O75970; [1]): below the threshold
pKd (NHERF3_1, Q5T2W1; [1]): below the threshold
pKd (NHERF3_3, Q5T2W1; [1]): below the threshold
pKd (NHERF4_2, Q86UT5; [1]): below the threshold
pKd (PICK1, Q9NRD5; [1]): below the threshold
pKd (SNTB1, Q13884; [1]): below the threshold
pKd (TJP1_2, Q07157; [1]): below the threshold
pKd (TJP2_1, Q9UDY2; [1]): below the threshold
pKd (TJP3_3, O95049; [1]): below the threshold
Binder: TEAKLTETNA [MYO18A, Q92614]

pKd (AHNAK1, Q09666; [2]): below the threshold
pKd (CARD11, Q9BXL7; [2]): below the threshold
pKd (DLG2_3, Q15700; [2]): below the threshold
pKd (DLG3_1, Q92796; [2]): below the threshold
pKd (DLG3_2, Q92796; [2]): below the threshold
pKd (FRMPD2_2, Q68DX3; [2]): below the threshold
pKd (FRMPD4, Q14CM0; [2]): 4.45
pKd (GRID2IP_2, A4D2P6; [2]): 4.87
pKd (Inadl_2, Q8NI35; [2]): below the threshold
pKd (Inadl_6, Q8NI35; [2]): 3.91
pKd (Inadl_8, Q8NI35; [2]): below the threshold
pKd (LIN7A, O14910; [2]): below the threshold
pKd (LIN7C, Q9NUP9; [2]): below the threshold
pKd (LNX1_1, Q8TBB1; [2]): below the threshold
pKd (LRRC7, Q96NW7; [2]): below the threshold
pKd (MAGI2_3, Q86UL8; [2]): below the threshold
pKd (MAGI2_5, Q86UL8; [2]): 4.47
pKd (MPDZ_5, O75970; [2]): below the threshold
pKd (NHERF3_1, Q5T2W1; [2]): 5.25
pKd (NHERF3_3, Q5T2W1; [2]): below the threshold
pKd (NHERF4_2, Q86UT5; [2]): below the threshold
pKd (PICK1, Q9NRD5; [2]): below the threshold
pKd (SNTB1, Q13884; [2]): 4.13
pKd (TJP1_2, Q07157; [2]): below the threshold
pKd (TJP2_1, Q9UDY2; [2]): below the threshold
pKd (TJP3_3, O95049; [2]): below the threshold
Binder: IDNDTESTAL [ARHGAP17, Q68EM7]

pKd (AHNAK1, Q09666; [2]): below the threshold
pKd (CARD11, Q9BXL7; [2]): below the threshold
pKd (DLG2_3, Q15700; [2]): 3.98
pKd (DLG3_1, Q92796; [2]): 3.84
pKd (DLG3_2, Q92796; [2]): 4.35
pKd (FRMPD2_2, Q68DX3; [2]): 3.77
pKd (FRMPD4, Q14CM0; [2]): 4.64
pKd (GRID2IP_2, A4D2P6; [2]): 4.36
pKd (Inadl_2, Q8NI35; [2]): below the threshold
pKd (Inadl_6, Q8NI35; [2]): 4.89
pKd (Inadl_8, Q8NI35; [2]): below the threshold
pKd (LIN7A, O14910; [2]): 3.66
pKd (LIN7C, Q9NUP9; [2]): 4.68
pKd (LNX1_1, Q8TBB1; [2]): 3.59
pKd (LRRC7, Q96NW7; [2]): 4.39
pKd (MAGI2_3, Q86UL8; [2]): below the threshold
pKd (MAGI2_5, Q86UL8; [2]): 4.69
pKd (MPDZ_5, O75970; [2]): below the threshold
pKd (NHERF3_1, Q5T2W1; [2]): 6.21
pKd (NHERF3_3, Q5T2W1; [2]): 3.61
pKd (NHERF4_2, Q86UT5; [2]): below the threshold
pKd (PICK1, Q9NRD5; [2]): below the threshold
pKd (SNTB1, Q13884; [2]): 5.05
pKd (TJP1_2, Q07157; [2]): below the threshold
pKd (TJP2_1, Q9UDY2; [2]): below the threshold
pKd (TJP3_3, O95049; [2]): below the threshold
Binder: STLTIFETAL [ABCC4, O15439]
